According to patent US20220259593A1, “CONTROL OF MAMMALIAN GENE DOSAGE USING CRISPR” (The Regents of the University of California, priority 2019, published 2022):
Where a chain is given by its changes, count along the chain named.

B1: cr112 (nucleic acid)
guide: GTTTAAGAGCTAAGCTGGAAACAGCATAGCAAGTTTAAATAAAGTTAATCTGTTATCAATTTGAAAAAATGGCACCGAGTCGGTGCT
modifications: listed as DNA, chemistry not fully specified
B2: cr082 (nucleic acid)
guide: B1 guide with G1C, T2G, A43G, T45C, A48G, T51C, T60C, A69G
modifications: listed as DNA, chemistry not fully specified
B3: cr588 (nucleic acid)
guide: B1 guide with G33C, A43G, T45C, A48G, T51C, T60C, A69G, C73T, G85A
modifications: listed as DNA, chemistry not fully specified
B4: cr097 (nucleic acid)
guide: B1 guide with T2C, A6C, A43G, T45C, A48G, T51C, T60C, A69G
modifications: listed as DNA, chemistry not fully specified
B5: cr066 (nucleic acid)
guide: B1 guide with G1A, T4C, A43G, T45C, A48G, T51C, T60C, A69G
modifications: listed as DNA, chemistry not fully specified
B6: cr791 (nucleic acid)
guide: B1 guide with T45C, A48G, T60C, A69G, G77C, C81G
modifications: listed as DNA, chemistry not fully specified
B7: cr582 (nucleic acid)
guide: B1 guide with A42C, A43G, T45C, A47T, A48G, T51C, T60C, G63C, A69G
modifications: listed as DNA, chemistry not fully specified
B8: cr438 (nucleic acid)
guide: B1 guide with A31C, A42C, A43G, T45C, A48G, T51C, A55G, T60C, A69G
modifications: listed as DNA, chemistry not fully specified
B9: cr985 (nucleic acid)
guide: B1 guide with A43G, T45C, A48G, T51C, G52T, T60C, A69G
modifications: listed as DNA, chemistry not fully specified
B10: cr714 (nucleic acid)
guide: B1 guide with T34C, A43G, T45C, A48G, T51C, T60A, A69T
modifications: listed as DNA, chemistry not fully specified
B11: cr467 (nucleic acid)
guide: B1 guide with T34C, A43G, T45C, A48G, T51C
modifications: listed as DNA, chemistry not fully specified
B12: cr325 (nucleic acid)
guide: B1 guide with G33C, A43G, T45C, A48G, T51C, A59G, T60C, A69G, T70C
modifications: listed as DNA, chemistry not fully specified
B13: cr038 (nucleic acid)
guide: B1 guide with A5G, A6C, A43G, T45C, A48G, T51C, T60C, A69G
modifications: listed as DNA, chemistry not fully specified
B14: cr739 (nucleic acid)
guide: B1 guide with G33C, A43G, T45C, A48G, T51C, T60C, T61G, A68C, A69G
modifications: listed as DNA, chemistry not fully specified
B15: cr762 (nucleic acid)
guide: B1 guide with A32C, A43G, T45C, A48G, T51C, G52T, T60C, A69G
modifications: listed as DNA, chemistry not fully specified
B16: cr483 (nucleic acid)
guide: GTTTAAGAGCTAAGCTGGAAACAGCATAGCAAGTTTAAATAAGGCTAGTCCGTTATCAACTAGAAATAGTGGCGTCGAGTCGACGCT
modifications: listed as DNA, chemistry not fully specified

These molecules were tested on K562 CRISPRi cells (assay: Constant region variant library pooled growth screen, K562). Details: sgRNA constant region variants; activity relative to the original, un-modified constant region cr995.
Format: cell-based, human
In short: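 K562 CRISPRi, duplicate transductions; puromycin 1 d 0.75 μg/mL then 1 d 0.85 μg/mL; >2000× coverage in spinner flasks; harvests at 4-8 d growth. Activity = phenotype ÷ phenotype with unmodified constant region.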

Point of comparison: B14, Mean relative activity 0.08764. Against it:
- B1 — higher, 0.0933
- B2 — lower, 0.0741
- B3 — lower, 0.07507
- B4 — lower, 0.06585
- B5 — higher, 0.09115
- B6 — lower, 0.07648
- B7 — lower, 0.07315
- B8 — lower, 0.06886
- B9 — lower, 0.07562
- B10 — higher, 0.09294
- B11 — lower, 0.06565
- B12 — higher, 0.09143
- B13 — lower, 0.07321
- B15 — higher, 0.0885
- B16 — higher, 1.037
